According to patent publication US7785829 (Biogen, dated 2010):
Values belong to the binder of their own block, whether it stands above or below them.

What was measured:
[1] = biological target: T1, human NgR1 receptor expressed on COS7 cells (human, UniProt Q9BZR6 27-447); test: mutant AP-Sp35 construct tested for NgR1 binding
T1 construct: whole, on cells; also called Nogo receptor-1; nogo receptor-1
T1 sequence (looked up): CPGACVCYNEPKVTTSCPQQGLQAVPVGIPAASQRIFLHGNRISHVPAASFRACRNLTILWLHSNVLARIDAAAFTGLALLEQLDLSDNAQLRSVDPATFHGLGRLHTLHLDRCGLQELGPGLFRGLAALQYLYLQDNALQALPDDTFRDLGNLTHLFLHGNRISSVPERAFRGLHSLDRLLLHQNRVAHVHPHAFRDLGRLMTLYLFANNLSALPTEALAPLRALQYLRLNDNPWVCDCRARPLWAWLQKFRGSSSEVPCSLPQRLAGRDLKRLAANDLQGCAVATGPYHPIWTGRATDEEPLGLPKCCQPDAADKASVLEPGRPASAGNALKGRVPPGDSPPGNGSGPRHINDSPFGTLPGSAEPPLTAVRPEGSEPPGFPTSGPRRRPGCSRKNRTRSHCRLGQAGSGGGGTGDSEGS

[2] = biological target: His-AP-Sp35 fusion protein (His-tagged alkaline phosphatase fused to the extracellular domain of Sp35, a.a. 34-532) (human) (UniProt P05187); test: competition ELISA; AP-Sp35 pre-incubated with 100-fold excess of soluble sNgR344-Fc, immobilized sNgR344-Fc
[3] = biological target: T1, human NgR1 receptor expressed on COS7 …; test: AP-Sp35 titration on NgR1-transfected COS7 cells, AP activity with 4-nitrophenyl phosphate

fold drop in signal (against the unmutated construct) [1]: > 10 fold
B1: His-AP-Sp35 (34-532) with amino acid 456 mutated from arginine to glutamic acid and amino acid 458 from histidine to valine (other)
chain: TGCPPRCECSAQDRAVLCHRKRFVAVPEGIPTETRLLDLGKNRIKTLNQDEFASFPHLEELELNENIVSAVEPGAFNNLFNLRTLGLRSNRLKLIPLGVFTGLSNLTKLDISENKIVILLDYMFQDLYNLKSLEVGDNDLVYISHRAFSGLNSLEQLTLEKCNLTSIPTEALSHLHGLIVLRLRHLNINAIRDYSFKRLYRLKVLEISHWPYLDTMTPNCLYGLNLTSLSITHCNLTAVPYLAVRHLVYLRFLNLSYNPISTIEGSMLHELLRLQEIQLVGGQLAVVEPYAFRGLNYLRVLNVSGNQLTTLEESVFHSVGNLETLILDSNPLACDCRLLWVFRRRWRLNFNRQQPTCATPEFVQGKEFKDFPDVLLPNYFTCRRARIRDRKAQQVFVDEGHTVQFVCRADGDPPPAILWLSPEKVLVSAKSNGRLTVFPDGTLEVRYAQVQDNGTYLCIAANAGGNDSMPAHLHVRSYSPDWPHQPNKTFAFISNQPGE
notes: also called Sp35 construct in which residues R at 456 and H at 458 were changed into E and V; not shown: N-terminal His tag and alkaline phosphatase (AP) reporter of the His-AP vector, with any junction residues

percent competition of binding [2]: 80%
B2: sNgR344-Fc (rat NgR1 peptide 35-344 fused to the rat IgG1) (Fc fusion, UniProt Q99M75 35-344, looked up, not shown: a dimerising Fc or GST)
chain: NEPKVTTSCPQQGLQAVPTGIPASSQRIFLHGNRISYVPAASFQSCRNLTILWLHSNALAGIDAAAFTGLTLLEQLDLSDNAQLRVVDPTTFRGLGHLHTLHLDRCGLQELGPGLFRGLAALQYLYLQDNNLQALPDNTFRDLGNLTHLFLHGNRIPSVPEHAFRGLHSLDRLLLHQNHVARVHPHAFRDLGRLMTLYLFANNLSMLPAEVLVPLRSLQYLRLNDNPWVCDCRARPLWAWLQKFRGSSSEVPCNLPQRLAGRDLKRLAASDLEGCAVASGPFRPFQTNQLTDEELLGLPKCCQPDAADKA

EC50 [3]: ~6 nM
B3: His-AP-Sp35 fusion protein (His-tagged alkaline phosphatase fused to the extracellular domain of Sp35, a.a. 34-532) (other, human)
chain: IIPVEEENPDFWNREAAEALGAAKKLQPAQTAAKNLIIFLGDGMGVSTVTAARILKGQKKDKLGPEIPLAMDRFPYVALSKTYNVDKHVPDSGATATAYLCGVKGNFQTIGLSAAARFNQCNTTRGNEVISVMNRAKKAGKSVGVVTTTRVQHASPAGTYAHTVNRNWYSDADVPASARQEGCQDIATQLISNMDIDVILGGGRKYMFRMGTPDPEYPDDYSQGGTRLDGKNLVQEWLAKRQGARYVWNRTELMQASLDPSVTHLMGLFEPGDMKYEIHRDSTLDPSLMEMTEAALRLLSRNPRGFFLFVEGGRIDHGHHESRAYRALTETIMFDDAIERAGQLTSEEDTLSLVTADHSHVFSFGGYPLRGSSIFGLAPGKARDRKAYTVLLYGNGPGYVLKDGARPDVTESESGSPEYRQQSAVPLDEETHAGEDVAVFARGPQAHLVHGVQEQTFIAHVMAFAACLEPYTACDLAPPAGTTDAAHPGTGCPPRCECSAQDRAVLCHRKRFVAVPEGIPTETRLLDLGKNRIKTLNQDEFASFPHLEELELNENIVSAVEPGAFNNLFNLRTLGLRSNRLKLIPLGVFTGLSNLTKLDISENKIVILLDYMFQDLYNLKSLEVGDNDLVYISHRAFSGLNSLEQLTLEKCNLTSIPTEALSHLHGLIVLRLRHLNINAIRDYSFKRLYRLKVLEISHWPYLDTMTPNCLYGLNLTSLSITHCNLTAVPYLAVRHLVYLRFLNLSYNPISTIEGSMLHELLRLQEIQLVGGQLAVVEPYAFRGLNYLRVLNVSGNQLTTLEESVFHSVGNLETLILDSNPLACDCRLLWVFRRRWRLNFNRQQPTCATPEFVQGKEFKDFPDVLLPNYFTCRRARIRDRKAQQVFVDEGHTVQFVCRADGDPPPAILWLSPRKHLVSAKSNGRLTVFPDGTLEVRYAQVQDNGTYLCIAANAGGNDSMPAHLHVRSYSPDWPHQPNKTFAFISNQPGE
notes: Order His-AP-Sp35 as in the name; also called alkaline phosphatase-Sp35 conjugate; His-AP-Sp35 (34-532); not shown: His tag
